T1: recombinant squamous cell carcinoma antigen 1 (SCCA-1), P29508
T1 chain: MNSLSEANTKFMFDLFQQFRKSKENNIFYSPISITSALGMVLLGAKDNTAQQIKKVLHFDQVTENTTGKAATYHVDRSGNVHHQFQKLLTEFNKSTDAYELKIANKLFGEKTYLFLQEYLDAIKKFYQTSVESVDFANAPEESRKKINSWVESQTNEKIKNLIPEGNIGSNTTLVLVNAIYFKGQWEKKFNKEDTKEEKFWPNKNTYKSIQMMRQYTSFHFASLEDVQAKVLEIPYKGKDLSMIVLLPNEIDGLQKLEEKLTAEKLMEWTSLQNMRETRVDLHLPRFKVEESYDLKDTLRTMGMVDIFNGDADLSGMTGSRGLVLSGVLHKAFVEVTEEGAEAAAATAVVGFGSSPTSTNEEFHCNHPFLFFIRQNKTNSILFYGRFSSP

T2: recombinant ICAD protein, O00273
T2 chain: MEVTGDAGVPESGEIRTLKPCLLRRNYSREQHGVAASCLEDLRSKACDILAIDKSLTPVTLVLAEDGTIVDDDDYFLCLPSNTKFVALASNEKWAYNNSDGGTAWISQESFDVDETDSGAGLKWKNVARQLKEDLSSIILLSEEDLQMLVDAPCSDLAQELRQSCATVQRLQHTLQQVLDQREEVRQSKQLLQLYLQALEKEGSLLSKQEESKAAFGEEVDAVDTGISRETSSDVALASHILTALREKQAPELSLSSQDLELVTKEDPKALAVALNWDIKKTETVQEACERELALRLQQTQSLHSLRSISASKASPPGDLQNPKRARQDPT


Tests used:
[1] = biological target: T1, recombinant squamous cell carcinoma …
[2] = biological target: T2, recombinant ICAD protein, O00273

| Protein | enzyme activity of recombinant caspase incubated with SCCA-1 (synthetic caspase substrates) [1] | further results |
| --- | --- | --- |
| recombinant caspase-3 (protein) SGISLDNSYKMDYPEMGLCIIINNKNFHKSTGMTSRSGTDVDAANLRETFRNLKYEVRNKNDLTREEIVELMRDVSKEDHSKRSSFVCVLLSHGEEGIIFGTNGPVDLKKITNFFRGDRCRSLTGKPKLFIIQACRGTELDCGIETDSGVDDDMACHKIPVEADFLYAYSTAPGYYSWRNSKDGSWFIQSLCAMLKQYADKLEFMHILTRVNRKVATEFESFSFDATFHAKKQIPCIVSMLTKELYFYH | None of the caspase members (1 to 10) were affected with respect to enzyme activity when recombinant caspase was incubated with SCCA-1 | caspase-3 activity on the synthetic substrate DEVD-MCA or the natural substrate ICAD [1]: SCCA-1 did not inhibit caspase-3 activity using the synthetic substrate DEVD-MCA or the natural substrate ICAD. |
| recombinant caspase-2 (protein) GPVCLQVKPCTPEFYQTHFQLAYRLQSRPRGLALVLSNVHFTGEKELEFRSGGDVDHSTLVTLFKLLGYDVHVLCDQTAQEMQEKLQNFAQLPAHRVTDSCIVALLSHGVEGAIYGVDGKLLQLQEVFQLFDNANCPSLQNKPKMFFIQACRGDETDRGVDQQDGKNHAGSPGCEESDAGKEKLPKMRLPTRSDMICGYACLKGTAAMRNTKRGSWYIEALAQVFSERACDMHVADMLVKVNALIKDREGYAPGTEFHRCKEMSEYCSTLCRHLYLFPGHPPT | None of the caspase members (1 to 10) were affected with respect to enzyme activity when recombinant caspase was incubated with SCCA-1 |  |
| purified caspase-14 from human cornified cells (heterodimer of 17 KDa large subunit and 11 KDa small subunit) (protein) chain 1: SLEEEKYDMSGARLALILCVTKAREGSEEDLDALEHMFRQLRFESTMKRDPTAEQFQEELEKFQQAIDSREDPVSCAFVVLMAHGREGFLKGEDGEMVKLENLFEALNNKNCQALRAKPKVYIIQACRGEQRDPGETVGGD chain 2: KDSPQTIPTYTDALHVYSTVEGYIAYRHDQKGSCFIQTLVDVFTKRKGHILELLTEVTRRMAEAELVQEGKARKTNPEIQSTLRKRLYLQ |  | ICAD cleavage products (Western blot with FL331 antibody) [2]: Cleavage products were observed at 33 and 27 KDa.; decomposition of recombinant ICAD in the presence of kosmotropic salt (Western blot with anti-ICAD IgG) [2]: since the amount of intact ICAD protein decreases and two major decomposition products increase in the presence of kosmotropic salt, purified caspase-14 demonstrated limited decomposing action on ICAD; fragments formed from ICAD; sequence analysis of the cleavage sites [2]: caspase-14 formed fragments resembling 12 KDa and 35 KDa from ICAD. Sequence analysis indicated identical cleavage sites.; hydrolysis of recombinant ICAD in an ordinary caspase assay buffer (Western blot with anti-ICAD IgG) [2]: purified caspase-14 did not demonstrate any hydrolysis activity on ICAD |
| recombinant caspase-6 (protein) AFYKREMFDPAEKYKMDHRRRGIALIFNHERFFWHLTLPERRGTCADRDNLTRRFSDLGFEVKCFNDLKAEELLLKIHEVSTVSHADADCFVCVFLSHGEGNHIYAYDAKIEIQTLTGLFKGDKCHSLVGKPKIFIIQACRGNQHDVPVIPLDVVDNQTEKLDTNITEVDAASVYTLPAGADFLMCYSVAEGYYSHRETVNGSWYIQDLCEMLGKYGSSLEFTELLTLVNRKVSQRRVDFCKDPSAIGKKQVPCFASMLTKKLHFFPKSN | None of the caspase members (1 to 10) were affected with respect to enzyme activity when recombinant caspase was incubated with SCCA-1 |  |
| recombinant caspase-5 (protein) DQKITSVKPLLQIEAGPPESAESTNILKLCPREEFLRLCKKNHDEIYPIKKREDRRRLALIICNTKFDHLPARNGAHYDIVGMKRLLQGLGYTVVDEKNLTARDMESVLRAFAARPEHKSSDSTFLVLMSHGILEGICGTAHKKKKPDVLLYDTIFQIFNNRNCLSLKDKPKVIIVQACRGEKHGELWVRDSPASLALISSQSSENLEADSVCKIHEEKDFIAFCSSTPHNVSWRDRTRGSIFITELITCFQKYSCCCHLMEIFRKVQKSFEVPQAKAQMPTIERATLTRDFYLFPGN | None of the caspase members (1 to 10) were affected with respect to enzyme activity when recombinant caspase was incubated with SCCA-1 |  |
| recombinant caspase-1 (protein) NPAMPTSSGSEGNVKLCSLEEAQRIWKQKSAEIYPIMDKSSRTRLALIICNEEFDSIPRRTGAEVDITGMTMLLQNLGYSVDVKKNLTASDMTTELEAFAHRPEHKTSDSTFLVFMSHGIREGICGKKHSEQVPDILQLNAIFNMLNTKNCPSLKDKPKVIIIQACRGDSPGVVWFKDSVGVSGNLSLPTTEEFEDDAIKKAHIEKDFIAFCSSTPDNVSWRHPTMGSVFIGRLIEHMQEYACSCDVEEIFRKVRFSFEQPDGRAQMPTTERVTLTRCFYLFPGH | None of the caspase members (1 to 10) were affected with respect to enzyme activity when recombinant caspase was incubated with SCCA-1 |  |
| recombinant caspase-4 (protein) QISPNKKAHPNMEAGPPESGESTDALKLCPHEEFLRLCKERAEEIYPIKERNNRTRLALIICNTEFDHLPPRNGADFDITGMKELLEGLDYSVDVEENLTARDMESALRAFATRPEHKSSDSTFLVLMSHGILEGICGTVHDEKKPDVLLYDTIFQIFNNRNCLSLKDKPKVIIVQACRGANRGELWVRDSPASLEVASSQSSENLEEDAVYKTHVEKDFIAFCSSTPHNVSWRDSTMGSIFITQLITCFQKYSWCCHLEEVFRKVQQSFETPRAKAQMPTIERLSMTRYFYLFPGN | None of the caspase members (1 to 10) were affected with respect to enzyme activity when recombinant caspase was incubated with SCCA-1 |  |
| recombinant caspase-10 (protein) VKTFLEALPQESWQNKHAGSNGNRATNGAPSLVSRGMQGASANTLNSETSTKRAAVYRMNRNHRGLCVIVNNHSFTSLKDRQGTHKDAEILSHVFQWLGFTVHIHNNVTKVEMEMVLQKQKCNPAHADGDCFVFCILTHGRFGAVYSSDEALIPIREIMSHFTALQCPRLAEKPKLFFIQACQGEEIQPSVSIEADALNPEQAPTSLQDSIPAEADFLLGLATVPGYVSFRHVEEGSWYIQSLCNHLKKLVPRMLKFLEKTMEIRGRKRTVWGAKQISATSLPTAISAQTPRPPMRRWSSVS | None of the caspase members (1 to 10) were affected with respect to enzyme activity when recombinant caspase was incubated with SCCA-1 |  |
| recombinant caspase-9 (protein) GALESLRGNADLAYILSMEPCGHCLIINNVNFCRESGLRTRTGSNIDCEKLRRRFSSLHFMVEVKGDLTAKKMVLALLELAQQDHGALDCCVVVILSHGCQASHLQFPGAVYGTDGCPVSVEKIVNIFNGTSCPSLGGKPKLFFIQACGGEQKDHGFEVASTSPEDESPGSNPEPDATPFQEGLRTFDQLDAISSLPTPSDIFVSYSTFPGFVSWRDPKSGSWYVETLDDIFEQWAHSEDLQSLLLRVANAVSVKGIYKQMPGCFNFLRKKLFFKTS | None of the caspase members (1 to 10) were affected with respect to enzyme activity when recombinant caspase was incubated with SCCA-1 |  |
| recombinant caspase-7 (protein) AKPDRSSFVPSLFSKKKKNVTMRSIKTTRDRVPTYQYNMNFEKLGKCIIINNKNFDKVTGMGVRNGTDKDAEALFKCFRSLGFDVIVYNDCSCAKMQDLLKKASEEDHTNAACFACILLSHGEENVIYGKDGVTPIKDLTAHFRGDRCKTLLEKPKLFFIQACRGTELDDGIQADSGPINDTDANPRYKIPVEADFLFAYSTVPGYYSWRSPGRGSWFVQALCSILEEHGKDLEIMQILTRVNDRVARHFESQSDDPHFHEKKQIPCVVSMLTKELYFSQ | None of the caspase members (1 to 10) were affected with respect to enzyme activity when recombinant caspase was incubated with SCCA-1 |  |
| recombinant caspase-8 (protein) SESQTLDKVYQMKSKPRGYCLIINNHNFAKAREKVPKLHSIRDRNGTHLDAGALTTTFEELHFEIKPHDDCTVEQIYEILKIYQLMDHSNMDCFICCILSHGDKGIIYGTDGQEAPIYELTSQFTGLKCPSLAGKPKVFFIQACQGDNYQKGIPVETDSEEQPYLEMDLSSPQTRYIPDEADFLLGMATVNNCVSYRNPAEGTWYIQSLCQSLRERCPRGDDILTILTEVNYEVSNKDDKKNMGKQMPQPTFTLRKKLVFPSD | None of the caspase members (1 to 10) were affected with respect to enzyme activity when recombinant caspase was incubated with SCCA-1 |  |

Source: patent US20090123572
